Our source for the stoichiometry N values is publication PMC10441612.

This test addresses Noe1-His (Noelin 1 with C-terminal hexa-histidine tag), O88998. Nature of the test: AUC. The conditions noted are these: remark: other sources report otherwise.

B1: Noe1-His (Noelin 1 with C-terminal hexa-histidine tag), O88998 17-485 (natural protein)
chain: MITNWMSQTLPSLVGLNTTRLSAASGGTLDRSTGVLPTNPEESWQVYSSAQDSEGRCICTVVAPQQTMCSRDARTKQLRQLLEKVQNMSQSIEVLDRRTQRDLQYVEKMENQMKGLETKFKQVEESHKQHLARQFKAIKAKMDELRPLIPVLEEYKADAKLVLQFKEEVQNLTSVLNELQEEIGAYDYDELQSRVSNLEERLRACMQKLACGKLTGISDPVTVKTSGSRFGSWMTDPLAPEGDNRVWYMDGYHNNRFVREYKSMVDFMNTDNFTSHRLPHPWSGTGQVVYNGSIYFNKFQSHIIIRFDLKTEAILKTRSLDYAGYNNMYHYAWGGHSDIDLMVDENGLWAVYATNQNAGNIVISKLDPVSLQILQTWNTSYPKRSAGEAFIICGTLYVTNGYSGGTKVHYAYQTNASTYEYIDIPFQNKYSHISMLDYNPKDRALYAWNNGHQTLYNVTLFHVIRSDEL
modifications: here or on the partner: glycosylated; glycosylated
For orientation: stoichiometry N means the number of molecules, sites or subunits per partner or assembly. In turn, B1 returned a stoichiometry N of 4.
